Laboratory results published in the supplement of paper PMC7125110.
± gives the standard error. Variants at the floor of the assay were thinned out.

B1: glmS ribozyme (parent)
chain: AUAAAAGCGCCAGAACUACAGAAAUGUAGUUGACGAGGAGGAGGUUUAUCGAAUUUUCGGCGGAUGCCUCCAAA

Key:
Conditions in all cases: with glucosamine-6-phosphate
[1] = variants of: B1; test: self-cleavage kobs at 40 uM GlcN6P; higher = faster cleavage; RNA array
Outline: (§1)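 Using a hybridised Cy3 probe at 37 °C, barcoded ribozyme variants transcribed in situ by E. coli RNA polymerase on sequenced MiSeq chips were monitored across tiles imaged over ~14 h. The flow contained glucosamine-6-phosphate from 40 μM to 10 mM in HEPES/KCl/Mg(OAc)2 buffer. Signals were normalised to baseline and to non-cleaving reference variants before per-tile medians were fit to one- or two-exponential decays to yield kobs. Weighted Michaelis–Menten fits across concentrations gave kcat and KM.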

[2] = variants of: B1; test: self-cleavage kobs at 640 uM GlcN6P; higher = faster cleavage; RNA array
Outline: as §1

[3] = variants of: B1; test: self-cleavage kobs at 2500 uM GlcN6P; higher = faster cleavage; RNA array
Outline: as §1

[4] = variants of: B1; test: self-cleavage kobs at 10000 uM GlcN6P; higher = faster cleavage; RNA array
Outline: as §1

[5] = variants of: B1; test: self-cleavage kobs at 160 uM GlcN6P; higher = faster cleavage; RNA array
Outline: as §1

Variant	self-cleavage kobs at 40 uM GlcN6P [1]	self-cleavage kobs at 640 uM GlcN6P [2]	self-cleavage kobs at 2500 uM GlcN6P [3]	self-cleavage kobs at 10000 uM GlcN6P [4]	self-cleavage kobs at 160 uM GlcN6P [5]
A14C C34U G60U	< 1e-05 s⁻¹	< 1e-05 s⁻¹	< 1e-05 s⁻¹	< 1e-05 s⁻¹	
G13C G66C	< 1e-05 s⁻¹	< 1e-05 s⁻¹			
A14G A53C C71U	0.000387 ± 8.7e-05 s⁻¹	0.00168 ± 0.00056 s⁻¹	0.00736 ± 0.003 s⁻¹	0.00798 ± 0.002 s⁻¹	
C16A G40U A48U	< 1e-05 s⁻¹			< 1e-05 s⁻¹	
A15C U31C G51C U56G C70G	< 1e-05 s⁻¹			< 1e-05 s⁻¹	
A15U G60U	< 1e-05 s⁻¹	< 1e-05 s⁻¹	< 1e-05 s⁻¹	< 1e-05 s⁻¹	< 1e-05 s⁻¹
A14U G40A G51U	< 1e-05 s⁻¹				
A14G A15G A33G G40U	< 1e-05 s⁻¹	< 1e-05 s⁻¹		< 1e-05 s⁻¹	
A15G G59C	< 1e-05 s⁻¹	< 1e-05 s⁻¹			< 1e-05 s⁻¹
A15G A52G G63U	< 1e-05 s⁻¹			< 1e-05 s⁻¹	
A14U U30G C34U G40A A52G C68G	< 1e-05 s⁻¹			< 1e-05 s⁻¹	
A15G G37C	< 1e-05 s⁻¹			4.76e-05 ± 6.4e-06 s⁻¹	
A14U A36G C50U C61A	< 1e-05 s⁻¹				
C16G G40U C58G	< 1e-05 s⁻¹		< 1e-05 s⁻¹		
G13U A36G	< 1e-05 s⁻¹	< 1e-05 s⁻¹	< 1e-05 s⁻¹	< 1e-05 s⁻¹	< 1e-05 s⁻¹
G13C U49C	< 1e-05 s⁻¹		< 1e-05 s⁻¹	< 1e-05 s⁻¹	
C16G G41C C68G	< 1e-05 s⁻¹			< 1e-05 s⁻¹	
G13U G43A C50A C61U C68U	< 1e-05 s⁻¹				
A15G G35U	< 1e-05 s⁻¹		< 1e-05 s⁻¹	< 1e-05 s⁻¹	< 1e-05 s⁻¹
A14G G37A G63U	< 1e-05 s⁻¹			< 1e-05 s⁻¹	
A14U G37U	< 1e-05 s⁻¹	< 1e-05 s⁻¹		< 1e-05 s⁻¹	
C16A C34G	< 1e-05 s⁻¹	< 1e-05 s⁻¹			
A15G U54A C71A	0.000174 ± 5.4e-05 s⁻¹			0.00522 ± 0.0014 s⁻¹	
A15G G35C C68A	< 1e-05 s⁻¹				
A14U A36C	< 1e-05 s⁻¹	< 1e-05 s⁻¹		< 1e-05 s⁻¹	

Variant	self-cleavage kobs at 40 uM GlcN6P [1]	self-cleavage kobs at 640 uM GlcN6P [2]	self-cleavage kobs at 2500 uM GlcN6P [3]	self-cleavage kobs at 10000 uM GlcN6P [4]	self-cleavage kobs at 160 uM GlcN6P [5]
A15G U55A	0.000962 ± 0.00014 s⁻¹	0.0107 ± 0.0017 s⁻¹		0.0387 ± 0.0094 s⁻¹	0.00144 ± 0.00025 s⁻¹
A14G A36U G43U	< 1e-05 s⁻¹			< 1e-05 s⁻¹	
A15G U31C	0.000207 ± 3.4e-05 s⁻¹	0.00208 ± 0.00026 s⁻¹	0.00542 ± 0.0013 s⁻¹	0.0123 ± 0.0028 s⁻¹	0.00035 ± 8.7e-05 s⁻¹
A14C A36G C71U	< 1e-05 s⁻¹				
A15U C16A G40A C68U U69A	< 1e-05 s⁻¹			< 1e-05 s⁻¹	
A15C G37A U57G C67G	< 1e-05 s⁻¹			< 1e-05 s⁻¹	
A15G C16G A33G A52G G60A	< 1e-05 s⁻¹			< 1e-05 s⁻¹	< 1e-05 s⁻¹
A15U A42C C68G	< 1e-05 s⁻¹				
A15C G40A U49G C71U	< 1e-05 s⁻¹			4.71e-05 ± 1.3e-05 s⁻¹	
C16G U54G G60A C70A	< 1e-05 s⁻¹	0.000647 ± 0.0003 s⁻¹	3.79e-05 ± 1.7e-05 s⁻¹		
A15C G41A C70U	0.000261 ± 6.2e-05 s⁻¹			0.0111 ± 0.0023 s⁻¹	
A15U U56A	0.000156 ± 3.4e-05 s⁻¹	0.00152 ± 0.00021 s⁻¹	0.00224 ± 0.00059 s⁻¹	0.00509 ± 0.00093 s⁻¹	0.000209 ± 4.3e-05 s⁻¹
C16G G44U	< 1e-05 s⁻¹			2.26e-05 ± 1e-05 s⁻¹	< 1e-05 s⁻¹
A14G C34G	< 1e-05 s⁻¹			< 1e-05 s⁻¹	< 1e-05 s⁻¹
A14G U45G A64U	< 1e-05 s⁻¹				
A14G C34A G44U C68U	< 1e-05 s⁻¹				< 1e-05 s⁻¹
A14C A36C G63A U65C	< 1e-05 s⁻¹			< 1e-05 s⁻¹	< 1e-05 s⁻¹
A14G C16G G38U C50G C67A	0.000102 ± 1.6e-05 s⁻¹			9.71e-05 ± 2.1e-05 s⁻¹	
G13C G59C	< 1e-05 s⁻¹	< 1e-05 s⁻¹		< 1e-05 s⁻¹	< 1e-05 s⁻¹
A14C U31A U54A	0.000186 ± 4.9e-05 s⁻¹			0.0192 ± 0.0058 s⁻¹	
A15U A36G U69G	3.94e-05 ± 1.7e-05 s⁻¹				
A14C G60C	< 1e-05 s⁻¹		< 1e-05 s⁻¹	< 1e-05 s⁻¹	< 1e-05 s⁻¹
A15C A33C A64U	< 1e-05 s⁻¹			< 1e-05 s⁻¹	
A14C A64U	< 1e-05 s⁻¹	< 1e-05 s⁻¹			< 1e-05 s⁻¹
G13U A15U G43C U57C C58G	< 1e-05 s⁻¹				
